Test results taken from PMC3589475, “Large-Scale Functional Purification of Recombinant HIV-1 Capsid” (PLoS ONE, 2013).

Molecular target: cross-linked CA 4Mu hexamer (HIV-1 (NL4-3 strain))
Experiment: SPR; Biacore T100; minimally biotinylated WT CA or CA 4Mu hexamer captured on neutravidin on CM5 chips, CAI injected (100 µM and 3-fold dilutions); 50 mM sodium phosphate pH 7.5, 150 mM NaCl, 0.01% P20; steady-state one-site fit

**Q.** ITFEDLLDYYGP [CAI peptide] was tested. Which Kd did it give?
**A.** Its Kd is > 100 µM.
